Source: the Human Domainome abundance scans (Beltran et al. 2025)
± gives the uncertainty stated by the source.

B1: Serine/threonine-protein kinase A-Raf, residues 21 to 89; numbered along this chain, P10398 (parent)
chain: VKVYLPNKQRTVVTVRDGMSVYDSLDKALKVRGLNQDCCVVYRLIKGRKTVTAWDTAIAPLDGEELIVE

Variants of: B1
Test: abundance fitness (aPCA) (normalised: wild type 0, dead -1); higher = more abundant; growth selection in yeast, the domain comes from the species named
Conditions: Homo sapiens

Variant	abundance fitness
VKVYLPNKQRTVVTVRDGMSVEDSLDKALKVRGLNQDCCVVYRLIKGRKTVTAWDTAIAPLDGEELIVE	-0.144 ± 0.085
VKVYLPNKQRTVVTVRDGMSVCDSLDKALKVRGLNQDCCVVYRLIKGRKTVTAWDTAIAPLDGEELIVE	-0.176 ± 0.12
VKVYLPNKQRTVVTVRDGMSVHDSLDKALKVRGLNQDCCVVYRLIKGRKTVTAWDTAIAPLDGEELIVE	0.024 ± 0.2
VKVYLPNKQRTVVTVRDGMSVGDSLDKALKVRGLNQDCCVVYRLIKGRKTVTAWDTAIAPLDGEELIVE	0.105 ± 0.058
VKVYLPNKQRTVVTVRDGMSVWDSLDKALKVRGLNQDCCVVYRLIKGRKTVTAWDTAIAPLDGEELIVE	-0.069 ± 0.051
VKVYLPNKQRTVVTVRDGMSVKDSLDKALKVRGLNQDCCVVYRLIKGRKTVTAWDTAIAPLDGEELIVE	0.012 ± 0.062
VKVYLPNKQRTVVTVRDGMSVADSLDKALKVRGLNQDCCVVYRLIKGRKTVTAWDTAIAPLDGEELIVE	0.056 ± 0.058
VKVYLPNKQRTVVTVRDGMSVVDSLDKALKVRGLNQDCCVVYRLIKGRKTVTAWDTAIAPLDGEELIVE	-0.321 ± 0.057
VKVYLPNKQRTVVTVRDGMSVRDSLDKALKVRGLNQDCCVVYRLIKGRKTVTAWDTAIAPLDGEELIVE	0.11 ± 0.05
VKVYLPNKQRTVVTVRDGMSVSDSLDKALKVRGLNQDCCVVYRLIKGRKTVTAWDTAIAPLDGEELIVE	0.094 ± 0.053
VKVYLPNKQRTVVTVRDGMSVLDSLDKALKVRGLNQDCCVVYRLIKGRKTVTAWDTAIAPLDGEELIVE	-0.04 ± 0.047
VKVYLPNKQRTVVTVRDGMSVNDSLDKALKVRGLNQDCCVVYRLIKGRKTVTAWDTAIAPLDGEELIVE	-0.346 ± 0.15
VKVYLPNKQRTVVTVRDGMSVDDSLDKALKVRGLNQDCCVVYRLIKGRKTVTAWDTAIAPLDGEELIVE	-0.83 ± 0.25
VKVYLPNKQRTVVTVRDGMSVTDSLDKALKVRGLNQDCCVVYRLIKGRKTVTAWDTAIAPLDGEELIVE	-0.383 ± 0.13
VKVYLPNKQRTVVTVRDGMSVMDSLDKALKVRGLNQDCCVVYRLIKGRKTVTAWDTAIAPLDGEELIVE	-0.142 ± 0.063
VKVYLPNKQRTVVTVRDGMSVPDSLDKALKVRGLNQDCCVVYRLIKGRKTVTAWDTAIAPLDGEELIVE	-0.95 ± 0.19
VKVYLPNKQRTVVTVRDGMSVQDSLDKALKVRGLNQDCCVVYRLIKGRKTVTAWDTAIAPLDGEELIVE	0.041 ± 0.054
VKVYLPNKQRTVVTVRDGMSVYESLDKALKVRGLNQDCCVVYRLIKGRKTVTAWDTAIAPLDGEELIVE	0.085 ± 0.057
VKVYLPNKQRTVVTVRDGMSVYASLDKALKVRGLNQDCCVVYRLIKGRKTVTAWDTAIAPLDGEELIVE	-0.201 ± 0.05
VKVYLPNKQRTVVTVRDGMSVYFSLDKALKVRGLNQDCCVVYRLIKGRKTVTAWDTAIAPLDGEELIVE	-0.056 ± 0.12

Variant	abundance fitness
VKVYLPNKQRTVVTVRDGMSVYTSLDKALKVRGLNQDCCVVYRLIKGRKTVTAWDTAIAPLDGEELIVE	-0.087 ± 0.055
VKVYLPNKQRTVVTVRDGMSVYCSLDKALKVRGLNQDCCVVYRLIKGRKTVTAWDTAIAPLDGEELIVE	-0.908 ± 0.26
VKVYLPNKQRTVVTVRDGMSVYMSLDKALKVRGLNQDCCVVYRLIKGRKTVTAWDTAIAPLDGEELIVE	-0.301 ± 0.069
VKVYLPNKQRTVVTVRDGMSVYHSLDKALKVRGLNQDCCVVYRLIKGRKTVTAWDTAIAPLDGEELIVE	-0.345 ± 0.26
VKVYLPNKQRTVVTVRDGMSVYSSLDKALKVRGLNQDCCVVYRLIKGRKTVTAWDTAIAPLDGEELIVE	-0.145 ± 0.065
VKVYLPNKQRTVVTVRDGMSVYNSLDKALKVRGLNQDCCVVYRLIKGRKTVTAWDTAIAPLDGEELIVE	-0.294 ± 0.19
VKVYLPNKQRTVVTVRDGMSVYKSLDKALKVRGLNQDCCVVYRLIKGRKTVTAWDTAIAPLDGEELIVE	-0.106 ± 0.077
VKVYLPNKQRTVVTVRDGMSVYVSLDKALKVRGLNQDCCVVYRLIKGRKTVTAWDTAIAPLDGEELIVE	-0.389 ± 0.039
VKVYLPNKQRTVVTVRDGMSVYPSLDKALKVRGLNQDCCVVYRLIKGRKTVTAWDTAIAPLDGEELIVE	-0.931 ± 0.23
VKVYLPNKQRTVVTVRDGMSVYWSLDKALKVRGLNQDCCVVYRLIKGRKTVTAWDTAIAPLDGEELIVE	-0.338 ± 0.053
VKVYLPNKQRTVVTVRDGMSVYGSLDKALKVRGLNQDCCVVYRLIKGRKTVTAWDTAIAPLDGEELIVE	-0.388 ± 0.038
VKVYLPNKQRTVVTVRDGMSVYLSLDKALKVRGLNQDCCVVYRLIKGRKTVTAWDTAIAPLDGEELIVE	-0.493 ± 0.059
VKVYLPNKQRTVVTVRDGMSVYQSLDKALKVRGLNQDCCVVYRLIKGRKTVTAWDTAIAPLDGEELIVE	0.118 ± 0.067
VKVYLPNKQRTVVTVRDGMSVYRSLDKALKVRGLNQDCCVVYRLIKGRKTVTAWDTAIAPLDGEELIVE	-0.283 ± 0.045
VKVYLPNKQRTVVTVRDGMSVYYSLDKALKVRGLNQDCCVVYRLIKGRKTVTAWDTAIAPLDGEELIVE	-0.825 ± 0.21
VKVYLPNKQRTVVTVRDGMSVYDSFDKALKVRGLNQDCCVVYRLIKGRKTVTAWDTAIAPLDGEELIVE	-0.903 ± 0.24
VKVYLPNKQRTVVTVRDGMSVYDSTDKALKVRGLNQDCCVVYRLIKGRKTVTAWDTAIAPLDGEELIVE	-0.978 ± 0.16
VKVYLPNKQRTVVTVRDGMSVYDSGDKALKVRGLNQDCCVVYRLIKGRKTVTAWDTAIAPLDGEELIVE	-0.697 ± 0.1
VKVYLPNKQRTVVTVRDGMSVYDSKDKALKVRGLNQDCCVVYRLIKGRKTVTAWDTAIAPLDGEELIVE	-0.542 ± 0.09
